Laboratory results from the supplement of paper PMC11865577.

These sequences were tested on TO-N3-2 (biotin conjugate) (assay: pull-down binding Z-score (relative to library population); higher = stronger binding). Conditions: RNA library: Library-2.
In short: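 A heat-folded, dye-end-labelled (Cy5 or Cy3) RNA library (1 μg, phosphate/NaCl/KCl buffer) was exposed for 60 min at 25 °C to streptavidin beads holding 100 pmol of biotin-conjugated small molecule. RNA retained on the beads was eluted in hot SDS and hybridised to a DNA barcode microarray for 20 h at 55.5 °C. Binding scores were Z-scores against the library mean and standard deviation, calculated after subtracting beads alone and taking trimmed means of replicate probes.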
For GCGCAGCCAGAAACUGGCGGCGC [mismatch-AG], the “pull-down binding Z-score” value was -0.228. For GCGCCGCCAGAAACUGGCAGCGC [mismatch-CA], the “pull-down binding Z-score” value was -1.05. In the case of GCGCCGCCAGAAACUGGCCGCGC [mismatch-CC], the “pull-down binding Z-score” value is reported as -0.608. In the case of GCGCCGCCAGAAACUGGCUGCGC [mismatch-CU], the “pull-down binding Z-score” value is reported as -0.671. GCGCGGCCAGAAACUGGCAGCGC [mismatch-GA] was tested, and the “pull-down binding Z-score” value was -1.21. GCGCGGCCAGAAACUGGCGGCGC [mismatch-GG] was tested, and the “pull-down binding Z-score” value was -0.598. GCGCGGCCAGAAACUGGCUGCGC [mismatch-GU] was tested, and the “pull-down binding Z-score” value was -0.388. “GCGCUACUGCAACGAUACCGAUACAAGCCUCACUCCCUUUCGGAUGGCUUAUUGUUGGCGUUGCACUUCUUGCUGUUUUUCAGAGCGC” was tested, and the “pull-down binding Z-score” value was 0.285. In the case of GCGCUGCCAGAAACUGGCAAAAGCGC [bulge-AAA], the “pull-down binding Z-score” value is reported as -0.689. In the case of GCGCUGCCAGAAACUGGCAAAGCGC [bulge-AA], the “pull-down binding Z-score” value is reported as -0.0432. In the case of GCGCUGCCAGAAACUGGCAAGCGC [bulge-A], the “pull-down binding Z-score” value is reported as -1.12. GCGCUGCCAGAAACUGGCAGCGC [full-UA] was tested, and the “pull-down binding Z-score” value was -0.943. For GCGCUGCCAGAAACUGGCCAGCGC [bulge-C], the “pull-down binding Z-score” value was -0.547. For GCGCUGCCAGAAACUGGCCCAGCGC [bulge-CC], the “pull-down binding Z-score” value was 0.352. For GCGCUGCCAGAAACUGGCCCCAGCGC [bulge-CCC], the “pull-down binding Z-score” value was 0.6. For GCGCUGCCAGAAACUGGCCGCGC [mismatch-UC], the “pull-down binding Z-score” value was -0.896. In the case of GCGCUGCCAGAAACUGGCGAGCGC [bulge-G], the “pull-down binding Z-score” value is reported as -0.578. GCGCUGCCAGAAACUGGCGGAGCGC [bulge-GG] was tested, and the “pull-down binding Z-score” value was -0.22. GCGCUGCCAGAAACUGGCGGCGC [mismatch-UG] was tested, and the “pull-down binding Z-score” value was -0.856. With GCGCUGCCAGAAACUGGCGGGAGCGC [bulge-GGG] the “pull-down binding Z-score” value was 0.604. For GCGCUGCCAGAAACUGGCUAAGCGC [bulge-UA], the “pull-down binding Z-score” value was -0.61. In the case of GCGCUGCCAGAAACUGGCUAGCGC [bulge-U], the “pull-down binding Z-score” value is reported as -0.75. With GCGCUGCCAGAAACUGGCUCAGCGC [bulge-UC] the “pull-down binding Z-score” value was -0.361. For GCGCUGCCAGAAACUGGCUGAGCGC [bulge-UG], the “pull-down binding Z-score” value was -0.14. GCGCUGCCAGAAACUGGCUGCGC [mismatch-UU] was tested, and the “pull-down binding Z-score” value was -0.689. GCGCUGCCAGAAACUGGCUUAAGCGC [bulge-UUA] was tested, and the “pull-down binding Z-score” value was -0.601. GCGCUGCCAGAAACUGGCUUAGCGC [bulge-UU] was tested, and the “pull-down binding Z-score” value was 0.338. For GCGCUGCCAGAAACUGGCUUCAGCGC [bulge-UUC], the “pull-down binding Z-score” value was -0.304. In the case of GCGCUGCCAGAAACUGGCUUGAGCGC [bulge-UUG], the “pull-down binding Z-score” value is reported as 0.434. With GCGCUGCCAGAAACUGGCUUUAGCGC [bulge-UUU] the “pull-down binding Z-score” value was -0.562. With GCGCUUCAGCGUUCUUCGGAAUGUCGCGC the “pull-down binding Z-score” value was -0.654. “GCGCUUUAGGUCUACACGGGCCGAAGCUAACGCGUUAAGCGC [3-way model-5_mrRNA]” was tested, and the “pull-down binding Z-score” value was 0.245. For “GCUAAAGAUACUACUGAAGCCUUUGAAAAAAUGGUUUCACUACUUUCUGUUUUGC [SHAPE_invitro_SARS-CoV-2_Motif_217]”, the “pull-down binding Z-score” value was -0.245. With “GCUAAAUUGUUACAUAAACCUAUUGUUUGGCAUGUUAACAAUGC [SHAPE_invitro_SARS-CoV-2_Motif_124]” the “pull-down binding Z-score” value was -1.24. For “GCUAAAUUGUUACAUAAACCUAUUGUUUGGCAUGUUAACAAUGCAACUAAUAAAGCCACGUAUAAACCAAAUACCUGGUGUAUACGUUGUCUUUGGAGC”, the “pull-down binding Z-score” value was -1.05. In the case of “GCUAACAAACAUGCUGAUUUUGACACAUGGUUUAGCCAGCGUGGUGGUAGU”, the “pull-down binding Z-score” value is reported as 0.519. For “GCUAGAAAAUCAGC [SHAPE_invivo_SARS-CoV-2_Motif_531]”, the “pull-down binding Z-score” value was -0.164. For “GCUAGCUCUUGGAGGUUCCGUGGCUAUAAAGAUAACAGAACAUUCUUGGAAUGCUGAUCUUUAUAAGCUCAUGGGACACUUCGCAUGGUGGACAGC”, the “pull-down binding Z-score” value was 0.936. In the case of GCUAGUCUUAAUGGAGUCACAUUAAUUGGAGAAGC, the “pull-down binding Z-score” value is reported as 0.337. In the case of “GCUAGUGGGGGACAACCAAUCACUAAUUGUGUUAAGAUGUUGUGUACACACACUGGU”, the “pull-down binding Z-score” value is reported as 0.564. With “GCUAUAUGAUGC [IAV_invivo_PA_3_Motif_14+IAV_invivo_PA_3_Motif_14]” the “pull-down binding Z-score” value was -0.634. “GCUAUCUAACCUUAACUUGCCUGGUUGUGAUGGU [SHAPE_invivo_SARS-CoV-2_Motif_361]” was tested, and the “pull-down binding Z-score” value was 0.466. In the case of GCUAUGCAAAUGGC, the “pull-down binding Z-score” value is reported as -0.948. With “GCUAUGGGUAUUAUUGCUAUGUCUGCUUUUGCAAUGAUGUUUGUCAAACAUAAGCAUGCAUUUCUCUGUUUGUUUUUGUUACCUUCUCUUGCCACUGUAGC” the “pull-down binding Z-score” value was -0.573. “GCUCACCGUGCCCAGUGAGC [IAV_invivo_M1_M2_7_Motif_5+IAV_invivo_M1_M2_7_Motif_5]” was tested, and the “pull-down binding Z-score” value was -0.587. With GCUCAGGAUGGUAAUGCUGCUAUCAGC the “pull-down binding Z-score” value was 1.05. In the case of GCUCUACAAGAUGCUUAUUACAGAGC, the “pull-down binding Z-score” value is reported as -0.0957. “GCUCUCUGAUGC [IAV_invivo_NP_5_Motif_10+IAV_invivo_NP_5_Motif_10]” was tested, and the “pull-down binding Z-score” value was -0.464. “GCUGAAAUUGUUGACACUGUGAGUGCUUUGGUUUAUGAUAAUAAGCUUAAAGCACAUAAAGACAAAUCAGC” was tested, and the “pull-down binding Z-score” value was -0.342. With “GCUGACACUACUGAUGCUGUCCGUGAUCCACAGACACUUGAGAUUCUUGACAUUACACCAUGUUCUUUUGGUGGUGUCAGU [SHAPE_invivo_SARS-CoV-2_Multi_58_ComplexLevel_1]” the “pull-down binding Z-score” value was 0.237. With GCUGAGGCUUCUAAGAAGCCUCGGC the “pull-down binding Z-score” value was -1.43. For “GCUGAGUUGCCAUUCAGC [IAV_invivo_NA_6_Motif_18+IAV_invivo_NA_6_Motif_18]”, the “pull-down binding Z-score” value was -0.226. For “GCUGCACAAAAAGC [IAV_invivo_NP_5_Motif_13+IAV_invivo_NP_5_Motif_13]”, the “pull-down binding Z-score” value was -0.23. In the case of “GCUGGCCUUGAAGCCCCUUUUCUCUAUCUUUAUGCUUUAGUCUACUUCUUGCAGAGUAUAAACUUUGUAAGAAUAAUAAUGAGGCUUUGGCUUUGC”, the “pull-down binding Z-score” value is reported as -0.575. “GCUGGUAAUGUUCAACUCAGGGUUAUUGGACAUUCUAUGC [SHAPE_invivo_SARS-CoV-2_Motif_203]” was tested, and the “pull-down binding Z-score” value was -0.0925. In the case of “GCUGGUCUGACUCACAUGAUGAUCUGGC [IAV_invivo_NP_5_Motif_8+IAV_invivo_NP_5_Motif_8]”, the “pull-down binding Z-score” value is reported as 0.653. “GCUGGUGCACUUGCCAGU [IAV_invivo_M1_M2_7_Motif_8+IAV_invivo_M1_M2_7_Motif_8]” was tested, and the “pull-down binding Z-score” value was -0.0123. With GCUGUAGUGUUACUAAUCCUUAUGACAGC the “pull-down binding Z-score” value was -0.349. In the case of GCUGUGAGUUGGAUACUUACCUG [U1snRNP5ss-13], the “pull-down binding Z-score” value is reported as 1.38. In the case of “GCUGUUGGUACCAAUUUACCUUUACAGC [SHAPE_invitro_SARS-CoV-2_Motif_335]”, the “pull-down binding Z-score” value is reported as -0.561. In the case of “GCUGUUUAAUAGGGGCUGAACAUGUCAACAACUCAUAUGAGUGUGACAUACCCAUUGGUGCAGGUAUAUGCGCUAGUUAUCAGACUCAGACUAAUUCUCCUCGGC”, the “pull-down binding Z-score” value is reported as -0.00417. For GCUUCAAGAGAGC, the “pull-down binding Z-score” value was -0.212. With “GCUUCCACAAGUGCUUUUGUGGAAACUGUGAAAGGUUUGGAUUAUAAAGCAUUCAAACAAAUUGUUGAAUCCUGUGGUAAUUUUAAAGUUACAAAAGGAAAAGC” the “pull-down binding Z-score” value was -0.348. “GCUUCCACUGAGAAGU [DMSMaPseq_invitro_SARS-CoV-2_Motif_384]” was tested, and the “pull-down binding Z-score” value was -1.03. “GCUUCUAGAAAGUGAACUCGUAAUCGGAGCUGUGAUCCUUCGUGGACAUCUUCGUAUUGCUGGACACCAUCUAGGACGC” was tested, and the “pull-down binding Z-score” value was 1.23. In the case of “GCUUGAAGUGGAGC [IAV_invivo_NS1_NEP_8_Motif_14+IAV_invivo_NS1_NEP_8_Motif_14]”, the “pull-down binding Z-score” value is reported as 0.386. In the case of “GCUUGCAUACGUAGACCAUUCUUAUGUUGUAAAUGCUGUUACGACCAUGUCAUAUCAACAUCACAUAAAUUAGUCUUGUCUGUUAAUCCGUAUGUUUGCAAUGC [DMSMaPseq_invitro_SARS-CoV-2_Motif_294]”, the “pull-down binding Z-score” value is reported as -0.437. In the case of “GCUUGGAGAAAAGC [SHAPE_invitro_SARS-CoV-2_Motif_326]”, the “pull-down binding Z-score” value is reported as -0.491. “GCUUGUCACACCGUUUCUAUAGAUUAGCUAAUGAGUGUGCUCAAGU” was tested, and the “pull-down binding Z-score” value was 0.588. With “GCUUUAGUCUACUUCUUGCAGAGUAUAAACUUUGUAAGAAUAAUAAUGAGGC [SHAPE_invitro_SARS-CoV-2_Motif_467]” the “pull-down binding Z-score” value was -0.561. In the case of “GCUUUCUUUGGC [IAV_invivo_NS1_NEP_8_Motif_2+IAV_invivo_NS1_NEP_8_Motif_2]”, the “pull-down binding Z-score” value is reported as -1.09. In the case of GCUUUGAUAUGGAACGUUAAAGAUUUCAUGUCAUUGU, the “pull-down binding Z-score” value is reported as -0.395.
